According to PMC4386032:

Biological target: F-actin (source not stated for this experiment: rabbit muscle or yeast) (not stated (rabbit muscle or yeast actin purified)) (UniProt P68135)

Vps1 (yeast dynamin), wild type, recombinant His tag fusion, sequence (P21576 whole entry, the tested form may be a part): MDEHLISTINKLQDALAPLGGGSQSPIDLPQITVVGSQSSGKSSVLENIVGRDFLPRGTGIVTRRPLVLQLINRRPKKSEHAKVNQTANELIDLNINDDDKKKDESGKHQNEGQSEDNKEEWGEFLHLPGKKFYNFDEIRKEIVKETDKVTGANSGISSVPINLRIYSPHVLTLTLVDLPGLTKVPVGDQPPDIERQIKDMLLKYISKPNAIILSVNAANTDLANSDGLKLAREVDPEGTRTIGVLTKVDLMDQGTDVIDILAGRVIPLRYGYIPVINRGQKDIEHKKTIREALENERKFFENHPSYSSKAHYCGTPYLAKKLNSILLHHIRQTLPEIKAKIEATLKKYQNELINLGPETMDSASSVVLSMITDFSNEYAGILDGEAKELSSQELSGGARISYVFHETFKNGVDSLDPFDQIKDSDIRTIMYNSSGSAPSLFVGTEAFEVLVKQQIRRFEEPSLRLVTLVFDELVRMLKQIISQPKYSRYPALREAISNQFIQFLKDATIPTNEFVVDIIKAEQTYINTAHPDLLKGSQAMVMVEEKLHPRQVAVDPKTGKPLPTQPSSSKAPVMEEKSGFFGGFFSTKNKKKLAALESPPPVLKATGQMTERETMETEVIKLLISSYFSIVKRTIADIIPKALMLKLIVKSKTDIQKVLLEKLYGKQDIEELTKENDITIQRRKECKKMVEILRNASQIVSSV

EM: proportion of Vps1 structures that are double rings after incubation with actin [%]	EM: proportion of actin in bundles of three or more filaments in the presence of Vps1 [%]	EM: proportion of actin in bundles of two or more filaments in the presence of Vps1 (23% without) [%]	EM: proportion of actin filaments in bundles of three or more in the presence of Vps1 RR-EE [%]	Substance
55	58	> 80		Vps1 (yeast dynamin), wild type, recombinant His tag fusion (from UniProt P21576 1-704) (natural protein)
			8	Vps1 RR457,458EE, recombinant His tag fusion (from UniProt P21576 1-704) (natural protein)
